The source of these data is patent publication US20220153873A1 (ICAHN SCHOOL OF MEDICINE AT MOUNT SINAI, published 2022).

Test [1] deals with recombinant neuraminidase (rNA) of B/Florida/04/06 (influenza B virus B/Florida/04/06). The test is described as follows: ELISA, biotinylated 3G1 on rNA B/Florida/04/2006, no competitor. In general terms: In an ELISA, binding on a coated surface is turned into a signal by an enzyme label.
Test [2] has as its target neuraminidase of wild type B/Malaysia/2506/04 virus (on virus and on infected MDCK cells) (influenza B virus B/Malaysia/2506/04). The test is described as follows: cell-based or functional assay.
Test [3] addresses neuraminidase of B/Lee/40 (purified whole virus) (influenza B virus B/Lee/40, UniProt P03474 1-466). Description: ELISA on purified whole virus.
The target of test [4] is recombinant neuraminidase (rNA) of B/Florida/04/06 (influenza B virus B/Florida/04/06).
For test [5], the target named is recombinant neuraminidase (rNA) of B/Malaysia/2506/04 (influenza B virus B/Malaysia/2506/04). Description: ELISA, rNA B/Malaysia/2506/04 coated at 2 ug/mL.
Test [6] has the same target.
The target of test [7] is recombinant neuraminidase (rNA) of B/Florida/04/06 (influenza B virus B/Florida/04/06). Description: ELISA, biotinylated 4B2 on rNA B/Florida/04/2006, no competitor.
Test [8] has the same target. Description: ELISA, rNA B/Florida/4/2006 coated at 2 ug/mL.
Test [9] shares this target. The source holds these as a separate data set.
Test [10] shares this target. Description: ELISA, biotinylated 1F2 on rNA B/Florida/04/2006, no competitor.

Where two headings read alike, the source gives them in different places.

neuraminidase of B/Lee/40 (purified whole virus), sequence (P03474 whole entry): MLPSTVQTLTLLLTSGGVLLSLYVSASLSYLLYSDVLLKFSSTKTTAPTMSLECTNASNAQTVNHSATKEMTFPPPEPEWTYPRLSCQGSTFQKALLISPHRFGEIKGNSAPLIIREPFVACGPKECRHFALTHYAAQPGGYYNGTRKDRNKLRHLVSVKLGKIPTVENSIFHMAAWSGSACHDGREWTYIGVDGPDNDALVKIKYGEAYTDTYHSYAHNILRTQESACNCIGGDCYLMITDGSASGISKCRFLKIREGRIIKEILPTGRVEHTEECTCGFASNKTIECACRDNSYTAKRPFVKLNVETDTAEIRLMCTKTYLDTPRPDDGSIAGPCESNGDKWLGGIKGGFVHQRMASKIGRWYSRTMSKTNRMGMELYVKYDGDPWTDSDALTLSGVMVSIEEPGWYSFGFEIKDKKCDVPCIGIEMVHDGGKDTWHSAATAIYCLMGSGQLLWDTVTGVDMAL

B1: 3G1 antibody (murine IgG2a, hybridoma-produced) (antibody, V domains shown)
VH: QVQLQQSGAELMKPGASVKISCKATGYKFTSYWIGWVKQRPGHGLEWCGEIFPGSGSINYNEKFKGKATFTADTSSNTAYLQLTSLTSEDSAVYYCARGEDYYGSSYGAMDYWGQGTSLTVSS
VL: DVQITQSPSYLAASPGETITINCRASKSISKYVAWYQEKPGRTNKVLIYSGSILSFGNPSRFSGSGSGTDFTLTISSLEPEDFAMYYCQQHNEYPWTFGGGTKLEIK
notes: also called mAb 3G1
Take B1: the EC50 (read off the curve) in test [1] came to 0.07 µg/mL. In test [2], this molecule showed an NI activity, NA-Star assay (percent inhibition) of 100%. For the same molecule, in test [3], the binding result is “binds”.

B2: 1F4 antibody (murine IgG2a, hybridoma-produced) (antibody, V domains shown)
VH: QVHLQQSGSELRSPGSSVKLSCKDFDSEVFPIVYMRWIRQKPGHGFEWIGDILPSFGRTIYGEKFEDKATLDADTVSNTAYLELNSLTSEDSAIYYCARGDHGNWLAYWGQGTLVTVSA
VL: DIVMTQSHKFMSTSVGDRVTITCKASQDVSTAVAWYQQKPGQSPKLLIYWASTRHTGVPNRFTGIISGTDYTLTISSVQAEDLALYYCQQHYSAPWTFGGGTKLEIK
notes: also called mAb 1F4; IF4
For B2, the binding result in test [3] was “binds”. In addition, in [4], the EC50 (read off the curve) was found to be 0.04 µg/mL.

B3: recombinant 4F11 IgG2b (antibody, V domains shown)
VH: DVKLVESGGDLVKPGGSLKLSCAASGFTFSAYSMSWVRQTPERRLEWVATINTGGSFTYYPDSVKGRFTISRDNAKNTLYLQMSSLKSEDTAMYFCTRVSDYGNSAYFPYWGQGTLVIVSA
VL: QVVLTQSPALISASPGEKVTMTCSASSNVNYMSWYQQRPRSSPKPWIYLTSKLASGVPPRFSGSGSGTSYSLTISSMEAEDVATYYCQQWSSDPQTFGGGTKVEIK
For B3, in [5], the EC50 (read off the curve) is 0.07 µg/mL. Besides, the Kd in [6] turned out to be 0.00298 nM.

B4: 4F11 antibody (murine IgG2b, hybridoma-produced) (antibody, V domains shown)
VH: B3 VH
VL: B3 VL
notes: also called mAb 4F11; 4F11 Hybridoma
Regarding B4, the EC50 (read off the curve) in test [5] came to 0.06 µg/mL. Further, in test [3], the binding result was “binds”.

B5: recombinant 4F11 monomeric IgA (antibody, V domains shown)
VH: B3 VH
VL: B3 VL
On to B5, for which, in test [6], the Kd turned out to be 0.00472 nM.

B6: recombinant 4F11 IgG1 (antibody, V domains shown)
VH: B3 VH
VL: B3 VL
For B6, in test [6], the Kd was determined as 0.00891 nM.

B7: recombinant 4F11 IgG2a (antibody, V domains shown)
VH: B3 VH
VL: B3 VL
On to B7, for which, in [6], the Kd came out at 0.00336 nM.

B8: 4B2 antibody (murine IgG2a, hybridoma-produced) (antibody, V domains shown)
VH: QIQLVQSGPELKKPGETVKISCKASGFTFTDYPMHWVKQAPGKSLKWMGWINTETEEPTYSDDFKGRFALSLETSASTTYLQINNLKNEDTATYFCARSGYYYGSTYAWFGYWGQGTLVTVSA
VL: DVVMTQIPLSLPVSLGDQASISCRSSQSLIHTNGDTFLHWYLQKPGQSPKLLIYKVSNRFSGVPDRFTGGGSGTDFTLKISRVEAEDLGIYFCSQSALFPYTFGGGTNLEIK
notes: also called mAb 4B2
As for B8, the EC50 (read off the curve) in test [7] was 0.1 µg/mL. For the same molecule, the binding result in test [3] is reported as “binds”.

B9: recombinant 1F2 IgG2a (antibody, V domains shown)
VH: QVHLQQSGPEVARPGASVKLSCKASGYTFTDYYLNWVKQRPRQGLEWIGQIHPGSTNTYYNEKFKGKATLTADKSSSTAYMQLSSLTSEDSAVYFCARSLGDGYYVYAMDYWGQGTAVTVSS
VL: DIVMTQSQKFMSTSVGDRVSVTCKASQNVVTNVVWYQQKPGQSPKPLIYSASYRYSGVPDRFTGSGSGTDFTLTISNVQSEDLAEYCCQQYHSYPFTFGSGTKLEVK
Consider B9, for which the EC50 (read off the curve) in [8] came to 0.03 µg/mL. Further, the Kd in [6] was 0.68 nM.

B10: recombinant 1F2 IgG1 (antibody, V domains shown)
VH: B9 VH
VL: B9 VL
As for B10, in test [8], the EC50 (read off the curve) was 0.05 µg/mL. Moreover, the Kd in [6] was 1.05 nM.

B11: recombinant 1F2 monomeric IgA (antibody, V domains shown)
VH: B9 VH
VL: B9 VL
For B11, in test [6], the Kd came to 0.958 nM.

B12: recombinant 1F2 IgG2b (antibody, V domains shown)
VH: B9 VH
VL: B9 VL
With B12, in test [8], the EC50 (read off the curve) stood at 0.03 µg/mL. Also, the Kd in [6] was found to be 1.16 nM.

B13: 1F2 antibody (murine IgG2a, hybridoma-produced) (antibody, V domains shown)
VH: B9 VH
VL: B9 VL
notes: also called mAb 1F2; IF2
Consider B13, for which the concentration giving a half-maximal response (EC50 (read off the curve)) in test [8] is 0.03 µg/mL; in test [9], 0.2 µg/mL; in [10], 0.02 µg/mL. Further, the binding result in [3] is “binds”.

A word on the EC50 (read off the curve): it is the concentration at which the effect is half-maximal. A word on the Kd: it is the constant that tells how readily two partners part at equilibrium.
